Source: patent US20150071907A1 (published 2015)

Biological target: T1, human macrophage mannose receptor (MMR) (human, UniProt P22897 19-1456)
T1 sequence (looked up): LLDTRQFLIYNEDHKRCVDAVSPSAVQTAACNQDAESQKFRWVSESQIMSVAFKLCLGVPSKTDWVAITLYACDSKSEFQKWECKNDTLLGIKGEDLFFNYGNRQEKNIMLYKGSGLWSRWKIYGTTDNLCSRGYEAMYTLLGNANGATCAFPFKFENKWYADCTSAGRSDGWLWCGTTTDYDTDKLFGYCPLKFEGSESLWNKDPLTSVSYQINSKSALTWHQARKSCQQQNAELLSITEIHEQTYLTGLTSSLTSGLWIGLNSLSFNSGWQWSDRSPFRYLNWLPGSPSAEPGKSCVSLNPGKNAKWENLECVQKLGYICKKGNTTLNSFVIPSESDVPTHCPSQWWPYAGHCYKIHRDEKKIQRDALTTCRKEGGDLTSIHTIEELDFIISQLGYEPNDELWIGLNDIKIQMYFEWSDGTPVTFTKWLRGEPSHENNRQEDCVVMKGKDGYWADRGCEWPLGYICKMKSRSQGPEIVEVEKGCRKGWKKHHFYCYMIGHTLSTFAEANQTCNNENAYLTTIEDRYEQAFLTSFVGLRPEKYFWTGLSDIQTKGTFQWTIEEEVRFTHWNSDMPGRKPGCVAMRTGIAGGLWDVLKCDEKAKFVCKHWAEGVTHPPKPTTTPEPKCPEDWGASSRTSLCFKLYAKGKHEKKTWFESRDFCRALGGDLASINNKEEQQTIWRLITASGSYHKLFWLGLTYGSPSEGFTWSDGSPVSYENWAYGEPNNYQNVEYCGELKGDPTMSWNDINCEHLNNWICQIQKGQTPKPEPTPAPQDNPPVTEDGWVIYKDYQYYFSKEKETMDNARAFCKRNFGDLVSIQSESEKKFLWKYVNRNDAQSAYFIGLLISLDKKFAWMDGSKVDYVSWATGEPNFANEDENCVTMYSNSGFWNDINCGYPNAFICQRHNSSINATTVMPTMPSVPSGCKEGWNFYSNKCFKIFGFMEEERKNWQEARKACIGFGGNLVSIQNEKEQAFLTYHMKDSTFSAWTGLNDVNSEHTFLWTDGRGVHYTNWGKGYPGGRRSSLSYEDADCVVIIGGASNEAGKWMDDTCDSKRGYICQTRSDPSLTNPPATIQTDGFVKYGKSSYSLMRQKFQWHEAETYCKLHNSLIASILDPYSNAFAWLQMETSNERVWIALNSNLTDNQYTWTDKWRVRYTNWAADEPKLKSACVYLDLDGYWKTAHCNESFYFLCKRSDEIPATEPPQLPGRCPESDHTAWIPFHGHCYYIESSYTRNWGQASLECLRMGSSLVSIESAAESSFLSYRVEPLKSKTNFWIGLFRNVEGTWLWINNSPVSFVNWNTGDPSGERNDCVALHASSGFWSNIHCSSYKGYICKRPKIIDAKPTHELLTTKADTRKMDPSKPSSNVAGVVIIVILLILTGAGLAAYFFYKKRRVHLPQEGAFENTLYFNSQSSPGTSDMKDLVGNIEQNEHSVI
Assay: cell-based or functional assay

internalization rate in U937 cells relative to imiglucerase (4-MU-glc activity assay): ≤ 2.5 fold
B1: velaglucerase alfa (enzyme, human, UniProt P04062 40-536, looked up)
chain: ARPCIPKSFGYSSVVCVCNATYCDSFDPPTFPALGTFSRYESTRSGRRMELSMGPIQANHTGTGLLLTLQPEQKFQKVKGFGGAMTDAAALNILALSPPAQNLLLKSYFSEEGIGYNIIRVPMASCDFSIRTYTYADTPDDFQLHNFSLPEEDTKLKIPLIHRALQLAQRPVSLLASPWTSPTWLKTNGAVNGKGSLKGQPGDIYHQTWARYFVKFLDAYAEHKLQFWAVTAENEPSAGLLSGYPFQCLGFTPEHQRDFIARDLGPTLANSTHHNVRLLMLDDQRLLLPHWAKVVLTDPEAAKYVHGIAVHWYLDFLAPAKATLGETHRLFPNTMLFASEACVGSKFWEQSVRLGSWDRGMQYSHSIITNLLYHVVGWTDWNLALNPEGGPNWVRNFVDSPIIVDITKDTFYKQPMFYHLGHFSKFIPEGSQRVGLVASQKNDLDAVALMHPDGSAVVVVLNRSSKDVPLTIKDPAVGFLETISPGYSIHTYLWRRQ
modifications: primarily high-mannose type N-glycans (6-9 mannose units per glycan) at Asn19, Asn59, Asn146, Asn270
